Measurements published in patent publication US12281147.

How the values were obtained:
human IL-21R (human) [1] = target: human IL-21R (human) (UniProt Q9HBE5); assay: AlphaSeq yeast mating assay, pH 7 media
human IL-21R (human) [2] = target: human IL-21R (human) (UniProt Q9HBE5); assay: AlphaSeq yeast mating assay, pH 5 media
human IL-21R (human) [3] = target: human IL-21R (human) (UniProt Q9HBE5); assay: AlphaSeq yeast mating assay, unbuffered media
human IL-21R (human) [4] = target: human IL-21R (human) (UniProt Q9HBE5); assay: AlphaSeq yeast mating assay, pH 6 media
[5] = target: wild-type human IL-21R (human) (UniProt Q9HBE5); assay: AlphaSeq yeast mating assay, pH 5 media
[6] = target: wild-type human IL-21R (human) (UniProt Q9HBE5); assay: AlphaSeq yeast mating assay, unbuffered media
[7] = target: human interleukin 21 receptor (IL-21R) (human) (UniProt Q9HBE5); assay: AlphaSeq yeast mating, unbuffered media

Row | Substance | Kd (human IL-21R (human) [1]) | Kd (human IL-21R (human) [2]) | Kd (human IL-21R (human) [3]) | Kd (human IL-21R (human) [4]) | Kd [5] | Kd [6] | Kd [7]
1 | IL-21_A112R (from UniProt Q9HBE4 32-152) (ligand) |  |  |  |  | 0.039 µM | 7.9 µM | 
2 | IL-21_D33T (from UniProt Q9HBE4 32-152) (ligand) |  |  |  |  |  |  | 15 µM
3 | IL-21_D44A (from UniProt Q9HBE4 32-152) (ligand) | 0.24 µM | 0.14 µM | 240 µM | 0.052 µM |  |  | 
4 | IL-21_E68K (from UniProt Q9HBE4 32-152) (ligand) |  |  |  |  | 0.027 µM | 3.3 µM | 
5 | IL-21_F76E (from UniProt Q9HBE4 32-152) (ligand) |  | 100 µM | 270 µM | 6.9 µM |  |  | 
6 | IL-21_F76T (from UniProt Q9HBE4 32-152) (ligand) |  | 75 µM | 340 µM |  |  |  | 
7 | IL-21_F79D (from UniProt Q9HBE4 32-152) (ligand) |  | 52 µM | 170 µM | 2.7 µM |  |  | 
8 | IL-21_F79Y (from UniProt Q9HBE4 32-152) (ligand) | 0.53 µM | 72 µM | 330 µM | 2 µM |  |  | 
9 | IL-21_I37G (from UniProt Q9HBE4 32-152) (ligand) |  | 82 µM | 170 µM |  |  |  | 
10 | IL-21_I37S (from UniProt Q9HBE4 32-152) (ligand) | 0.32 µM | 16 µM | 240 µM | 0.53 µM |  |  | 
11 | IL-21_I37V (from UniProt Q9HBE4 32-152) (ligand) |  |  |  |  | 0.058 µM | 3.2 µM | 
12 | IL-21_I45G (from UniProt Q9HBE4 32-152) (ligand) | 1.2 µM |  | 330 µM | 5 µM |  |  | 
13 | IL-21_I95K (from UniProt Q9HBE4 32-152) (ligand) | 0.24 µM |  | 260 µM |  |  |  | 
14 | IL-21_I96D (from UniProt Q9HBE4 32-152) (ligand) | 35 µM |  | 580 µM | 60 µM |  |  | 
15 | IL-21_I96P (from UniProt Q9HBE4 32-152) (ligand) | 3 µM |  | 270 µM | 5.7 µM |  |  | 
16 | IL-21_K131M (from UniProt Q9HBE4 32-152) (ligand) |  |  |  |  |  |  | 27 µM
17 | IL-21_L42H (from UniProt Q9HBE4 32-152) (ligand) | 5.4 µM |  | 550 µM | 67 µM |  |  | 
18 | IL-21_L42K (from UniProt Q9HBE4 32-152) (ligand) | 12 µM |  | 250 µM |  |  |  | 
19 | IL-21_L49E (from UniProt Q9HBE4 32-152) (ligand) |  | 600 µM | 540 µM |  |  |  | 
20 | IL-21_L56F (from UniProt Q9HBE4 32-152) (ligand) | 0.24 µM | 54 µM | 240 µM |  |  |  | 
21 | IL-21_L103E (from UniProt Q9HBE4 32-152) (ligand) |  | 240 µM | 590 µM | 92 µM |  |  | 

Row | Substance | Kd (human IL-21R (human) [1]) | Kd (human IL-21R (human) [2]) | Kd (human IL-21R (human) [3]) | Kd (human IL-21R (human) [4]) | Kd [5] | Kd [6] | Kd [7]
22 | IL-21_M39D (from UniProt Q9HBE4 32-152) (ligand) |  |  | 800 µM | 76 µM |  |  | 
23 | IL-21_M39E (from UniProt Q9HBE4 32-152) (ligand) |  | 150 µM | 330 µM |  |  |  | 
24 | IL-21_M39G (from UniProt Q9HBE4 32-152) (ligand) | 7.8 µM | 150 µM | 240 µM | 31 µM |  |  | 
25 | IL-21_M39R (from UniProt Q9HBE4 32-152) (ligand) |  |  | 340 µM | 170 µM |  |  | 
26 | IL-21_Q80D (from UniProt Q9HBE4 32-152) (ligand) |  | 580 µM | 660 µM |  |  |  | 
27 | IL-21_R38K (from UniProt Q9HBE4 32-152) (ligand) | 7 µM |  | 250 µM |  |  |  | 
28 | IL-21_R38Q (from UniProt Q9HBE4 32-152) (ligand) |  |  | 270 µM | 12 µM |  |  | 
29 | IL-21_R105A (from UniProt Q9HBE4 32-152) (ligand) | 20 µM | 260 µM | 270 µM |  |  |  | 
30 | IL-21_S77R (from UniProt Q9HBE4 32-152) (ligand) |  |  |  |  |  |  | 46 µM
31 | IL-21_V46D (from UniProt Q9HBE4 32-152) (ligand) |  |  | 270 µM | 12 µM |  |  | 
32 | IL-21_V46K (from UniProt Q9HBE4 32-152) (ligand) | 28 µM | 340 µM | 730 µM |  |  |  | 
33 | IL-21_V46Q (from UniProt Q9HBE4 32-152) (ligand) | 71 µM |  | 1000 µM | 260 µM |  |  | 
34 | IL-21_V46T (from UniProt Q9HBE4 32-152) (ligand) | 0.053 µM |  | 640 µM |  |  |  | 
35 | IL-21_V53E (from UniProt Q9HBE4 32-152) (ligand) |  |  |  |  |  |  | 31 µM
36 | IL-21_V53H (from UniProt Q9HBE4 32-152) (ligand) |  |  |  |  |  |  | 46 µM
37 | IL-21_V53N (from UniProt Q9HBE4 32-152) (ligand) | 0.99 µM |  | 560 µM |  |  |  | 
38 | IL-21_V53P (from UniProt Q9HBE4 32-152) (ligand) |  | 270 µM | 270 µM | 27 µM |  |  | 
39 | IL-21_W73G (from UniProt Q9HBE4 32-152) (ligand) | 0.33 µM | 57 µM | 150 µM |  |  |  | 
40 | IL-21_W73K (from UniProt Q9HBE4 32-152) (ligand) | 10 µM |  | 890 µM | 30 µM |  |  | 
41 | IL-21_Y52K (from UniProt Q9HBE4 32-152) (ligand) |  |  | 340 µM | 2.8 µM |  |  | 

Further substances by falling Kd (human IL-21R (human) [3]), results first:

Row | Kd (human IL-21R (human) [1]) | Kd (human IL-21R (human) [2]) | Kd (human IL-21R (human) [3]) | Kd (human IL-21R (human) [4]) | Kd [5] | Kd [6] | Kd [7] | Substance
42 |  | 53 µM | 150 µM | 2 µM |  |  |  | IL-21_I95H (from UniProt Q9HBE4 32-152) (ligand)
43 | 0.25 µM |  | 150 µM | 0.094 µM |  |  |  | IL-21_V98K (from UniProt Q9HBE4 32-152) (ligand)
44 | 6.9 µM | 59 µM | 110 µM | 7 µM |  |  |  | IL-21_F79E (from UniProt Q9HBE4 32-152) (ligand)
45 |  | 1.5 µM | 110 µM | 0.55 µM |  |  |  | IL-21_I37E (from UniProt Q9HBE4 32-152) (ligand)
46 | 0.12 µM | 11 µM | 110 µM |  |  |  |  | IL-21_P62V (from UniProt Q9HBE4 32-152) (ligand)
47 |  |  | 110 µM | 8.4 µM |  |  |  | IL-21_R38E (from UniProt Q9HBE4 32-152) (ligand)
48 | 0.24 µM |  | 110 µM |  |  |  |  | IL-21_Y52N (from UniProt Q9HBE4 32-152) (ligand)
49 |  |  | 100 µM | 6.9 µM |  |  |  | IL-21_L56T (from UniProt Q9HBE4 32-152) (ligand)
50 | 0.12 µM | 3.3 µM | 95 µM | 0.19 µM |  |  |  | IL-21_I37K (from UniProt Q9HBE4 32-152) (ligand)
51 |  | 0.17 µM | 85 µM | 0.026 µM |  |  |  | IL-21_S74H (from UniProt Q9HBE4 32-152) (ligand)
52 | 0.11 µM | 4.4 µM | 69 µM |  |  |  |  | IL-21_Y52H (from UniProt Q9HBE4 32-152) (ligand)
53 | 0.057 µM |  | 2.8 µM | 0.027 µM |  |  |  | IL-21_E72T (from UniProt Q9HBE4 32-152) (ligand)
54 | 0.027 µM | 0.1 µM | 2.8 µM |  |  |  |  | IL-21_P62S (from UniProt Q9HBE4 32-152) (ligand)
55 | 0.55 µM |  | 2.8 µM |  |  |  |  | IL-21_P108E (from UniProt Q9HBE4 32-152) (ligand)
56 |  | 0.025 µM | 2.7 µM |  |  |  |  | IL-21_D66R (from UniProt Q9HBE4 32-152) (ligand)
57 | 0.028 µM | 0.027 µM | 2.7 µM | 0.012 µM |  |  |  | IL-21_Q32K (from UniProt Q9HBE4 33-152) (ligand)

Row | Kd (human IL-21R (human) [1]) | Kd (human IL-21R (human) [2]) | Kd (human IL-21R (human) [3]) | Kd (human IL-21R (human) [4]) | Kd [5] | Kd [6] | Kd [7] | Substance
58 |  | 1.4 µM | 2.7 µM |  |  |  |  | IL-21_R34P (from UniProt Q9HBE4 32-152) (ligand)
59 | 0.088 µM |  | 2.7 µM |  |  |  |  | IL-21_V57L (from UniProt Q9HBE4 32-152) (ligand)
60 | 0.041 µM |  | 2.6 µM |  |  |  |  | IL-21_S142I (from UniProt Q9HBE4 32-152) (ligand)
61 | 0.035 µM |  | 2.5 µM |  |  |  |  | IL-21_M39I (from UniProt Q9HBE4 32-152) (ligand)
62 |  |  | 2.5 µM | 0.062 µM |  |  |  | IL-21_N51V (from UniProt Q9HBE4 32-152) (ligand)
63 | 0.081 µM |  | 2.5 µM | 0.43 µM |  |  |  | IL-21_S109M (from UniProt Q9HBE4 32-152) (ligand)
64 |  | 0.046 µM | 2.4 µM |  |  |  |  | IL-21_E93T (from UniProt Q9HBE4 32-152) (ligand)
65 | 0.035 µM | 0.062 µM | 2.4 µM | 0.015 µM |  |  |  | IL-21_F60H (from UniProt Q9HBE4 32-152) (ligand)
66 |  | 0.058 µM | 1.5 µM | 0.02 µM |  |  |  | IL-21_I43L (from UniProt Q9HBE4 32-152) (ligand)
67 | 0.24 µM |  | 1.4 µM |  |  |  |  | IL-21_P108D (from UniProt Q9HBE4 32-152) (ligand)
68 | 0.056 µM | 0.047 µM | 1.4 µM | 0.02 µM |  |  |  | IL-21_V53S (from UniProt Q9HBE4 32-152) (ligand)
69 | 0.12 µM | 0.2 µM | 1.1 µM | 0.035 µM |  |  |  | IL-21_R34Q (from UniProt Q9HBE4 32-152) (ligand)
70 | 0.056 µM |  | 1.1 µM |  |  |  |  | IL-21_V53A (from UniProt Q9HBE4 32-152) (ligand)
71 | 0.08 µM | 0.058 µM | 1 µM | 0.021 µM |  |  |  | IL-21_A112P (from UniProt Q9HBE4 32-152) (ligand)
72 |  | 10 µM | 1 µM | 0.55 µM |  |  |  | IL-21_K106N (from UniProt Q9HBE4 32-152) (ligand)
73 | 0.059 µM | 0.056 µM | 0.96 µM | 0.021 µM |  |  |  | IL-21_Q150D (from UniProt Q9HBE4 32-152) (ligand)
